Data on one molecule can be found in patent publication WO2005003174A1 (dated 2005).

This assay has as its target T1, fusion protein consisting of soluble CD64 linked to the Fc portion of human IgM (human, UniProt P12314 16-292; P01871 106-453, limits assumed).
T1 construct: domain: soluble CD64;domain: Fc portion; Used as a supernatant and detected with alkaline phosphatase labelled goat anti-human IgM; also called soluble CD64-IgM fusion protein
The assay is described as follows: bispecific ELISA: PsaA coated, detection with soluble CD64-IgM fusion and anti-human IgM.

T1 sequence (P12314 other isoform, or with tags, fused parts or gaps limits assumed): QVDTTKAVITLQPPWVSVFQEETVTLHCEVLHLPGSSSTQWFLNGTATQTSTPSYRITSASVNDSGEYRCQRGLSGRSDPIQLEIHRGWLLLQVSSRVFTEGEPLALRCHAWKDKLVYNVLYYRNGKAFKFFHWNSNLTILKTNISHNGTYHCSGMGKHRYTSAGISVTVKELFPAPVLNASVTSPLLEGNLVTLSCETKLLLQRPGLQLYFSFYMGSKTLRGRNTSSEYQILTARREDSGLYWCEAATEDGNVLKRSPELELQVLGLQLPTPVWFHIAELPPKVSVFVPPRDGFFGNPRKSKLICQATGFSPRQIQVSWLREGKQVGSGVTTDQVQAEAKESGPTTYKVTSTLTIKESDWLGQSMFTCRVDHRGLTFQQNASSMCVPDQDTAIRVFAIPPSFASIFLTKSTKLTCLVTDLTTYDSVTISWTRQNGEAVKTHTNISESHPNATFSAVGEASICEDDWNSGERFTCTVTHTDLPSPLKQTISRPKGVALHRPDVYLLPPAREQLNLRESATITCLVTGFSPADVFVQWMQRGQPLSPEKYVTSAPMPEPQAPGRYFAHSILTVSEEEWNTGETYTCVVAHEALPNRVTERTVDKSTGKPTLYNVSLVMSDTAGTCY

B1: F(ab')2 fragment of the anti-PsaA Ab 5-9A7 (antibody, V domains shown)
VH: EVQLVESGGGLVQPGGSLRLSCAASGFTFSSFWMSWVRQAPGKGLEWVANIKQDGSEKFYVDSVKGRFTISRDNAKNSLYLQMNSLRAEDTAVYYCARDRITMVRPYYYFYNGLDVWGQGTTVTVSS
VL: EIVLTQSPATLSLSPGERATLSCRASQSVSSYLAWYQQKPGQAPRLLIYDASNRATGIPARFSGSGSGTDFTLTISSLEPEDFAVYYCQQRSNWPPFTFGPGTKVDIK
notes: F(ab')2 fragment made by pepsin digestion of the human antibody 5-9A7; also called anti-PsaA F(ab')2
On to B1, for which the binding result is recorded as “no binding”.
